T1: cynomolgus MCSP D3 (cynomolgus, UniProt Q6UVK1 1582-2224 (human entry))
T1 construct: also called cynomolgus homologue; not shown: C-terminal tag
T1 chain: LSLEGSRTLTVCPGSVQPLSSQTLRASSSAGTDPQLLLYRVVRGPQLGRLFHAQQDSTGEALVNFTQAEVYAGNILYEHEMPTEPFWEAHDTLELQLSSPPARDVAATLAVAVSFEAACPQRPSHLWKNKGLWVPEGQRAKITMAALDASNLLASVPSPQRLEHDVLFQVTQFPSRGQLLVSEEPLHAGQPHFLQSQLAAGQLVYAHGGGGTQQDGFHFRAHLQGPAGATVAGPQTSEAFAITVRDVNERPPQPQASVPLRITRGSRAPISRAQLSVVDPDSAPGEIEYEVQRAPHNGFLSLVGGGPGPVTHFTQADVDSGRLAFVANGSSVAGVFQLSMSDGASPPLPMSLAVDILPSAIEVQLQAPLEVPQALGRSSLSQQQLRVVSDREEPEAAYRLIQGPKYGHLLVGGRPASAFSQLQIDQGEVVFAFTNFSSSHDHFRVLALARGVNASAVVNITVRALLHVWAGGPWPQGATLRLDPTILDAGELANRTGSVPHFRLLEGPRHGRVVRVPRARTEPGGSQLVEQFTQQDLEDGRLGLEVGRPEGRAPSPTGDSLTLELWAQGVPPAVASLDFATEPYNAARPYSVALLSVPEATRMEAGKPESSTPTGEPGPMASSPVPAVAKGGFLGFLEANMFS

T2: hu-MCSP(D3 domain)-avi-his (human, UniProt Q6UVK1 1582-2224, biotinylated where used for selection or for coupling to the SA chip)
T2 construct: also called human MCSP(D3 domain)-avi-his; human MCSP D3
T2 sequence: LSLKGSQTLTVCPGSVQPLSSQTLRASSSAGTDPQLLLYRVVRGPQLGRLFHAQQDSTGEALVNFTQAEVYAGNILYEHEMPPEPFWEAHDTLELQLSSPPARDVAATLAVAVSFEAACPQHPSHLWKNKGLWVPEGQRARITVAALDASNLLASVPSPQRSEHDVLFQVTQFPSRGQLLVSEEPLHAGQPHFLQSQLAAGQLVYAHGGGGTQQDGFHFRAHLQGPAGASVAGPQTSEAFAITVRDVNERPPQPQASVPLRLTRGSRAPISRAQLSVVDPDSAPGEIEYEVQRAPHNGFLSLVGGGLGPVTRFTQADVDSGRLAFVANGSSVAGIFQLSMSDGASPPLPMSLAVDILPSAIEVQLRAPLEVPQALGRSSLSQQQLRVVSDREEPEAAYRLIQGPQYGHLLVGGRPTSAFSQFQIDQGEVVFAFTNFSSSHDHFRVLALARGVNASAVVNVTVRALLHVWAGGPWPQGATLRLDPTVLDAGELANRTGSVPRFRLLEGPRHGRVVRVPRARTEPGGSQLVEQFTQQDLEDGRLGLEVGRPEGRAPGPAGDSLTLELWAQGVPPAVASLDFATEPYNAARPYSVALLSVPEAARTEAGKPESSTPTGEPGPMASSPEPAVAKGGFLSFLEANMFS


Tests used:
cynomolgus MCSP D3 = biological target: T1, cynomolgus MCSP D3; assay: SPR (ProteOn XPR36), IgG KD against parental M4-3/ML2
Procedure: (§1) Briefly, carboxymethylated dextran biosensor chips (CM5, GE Healthcare) were activated with N-ethyl-N′-(3-dimethylaminopropyl)-carbodiimide hydrochloride (EDC) and N-hydroxysuccinimide (NHS) according to the supplier's instructions. Anti-human F(ab′)2 fragment specific capture antibody was diluted with 10 mM sodium acetate, pH 5.0 at 50 μg/ml before injection at a flow rate of 10 μl/minute to achieve approximately up to 10.000 response units (RU) of coupled capture antibody. Following the injection of the capture antibody, 1 M ethanolamine was injected to block unreacted groups. For kinetics measurements, Fabs from bacterial supernatant or purified Fabs are injected at a flow rate of 10 ul/minute for 300 s and a dissociation of 300 s for capture baseline stabilization. […] The surface of the sensorchip was regenerated by injection of glycine pH 1.5 for 30 s at 90 ul/min followed by injection of NaOH for 20 s at the same flow rate. Association rates (kon) and dissociation rates (koff) were calculated using a simple one-to-one Langmuir binding model (ProteOn XPR36 Evaluation Software or Scrubber software (BioLogic)) by simultaneously fitting the association and dissociation sensorgrams. The equilibrium dissociation constant (KD) was calculated as the ratio koff/kon. […] Since CDR1 and 2 of the light chain were randomized independent from CDR3, the obtained CDRs were combined during IgG conversion.
(§2) In the IgG format affinities were measured again to the human MCSP antigen (SEQ ID NO. 390), in addition also to the cynomolgus homologue (SEQ ID NO. 389). Method exactly as described for the Fab fragments, just purified IgG from mammalian production were used.

[1] = biological target: T2, hu-MCSP(D3 domain)-avi-his; assay: as above
Procedure: as §1, §2

| Binder | Comparative binding affinity - Fold increase over parent (cynomolgus MCSP D3) [fold] | Comparative binding affinity - Fold increase over parent [1] [fold] |
| --- | --- | --- |
| M4-3(B7)/ML2 (IgG) (antibody, V domains shown, Human IgG1 format) VH: QVQLQESGPGLVKPSQTLSLTCTVSGGSITSGYYWNWIRQHPGKGLEWIGYITFDGINNYNPSLKSRVTISRDTSKNQFSLKLSSVTAADTAVYYCADFDYWGQGTLVTVSS VL: DIQMTQSPSSLSASVGDRVTITCRASQGIRNYLNWYQQKPGKAPKLLIYYTSSLHSGVPSRFSGSGSGTDFTLTISSLQPEDFATYYCQQYSKLPWTFGQGTKVEIK | 2.9 | 4 |
| M4-3(A7)/ML2(G3) (IgG) (antibody, V domains shown, Human IgG1 format) VH: QVQLQESGPGLVKPSQTLSLTCTVSGGSITDGYYWNWIRQHPGKGLEWIGYITFDGRNNYNPSLKSRVTISRDTSKNQFSLKLSSVTAADTAVYYCADFDYWGQGTLVTVSS VL: DIQMTQSPSSLSASVGDRVTITCRASQGIRNYLNWYQQKPGKAPKLLIYYTSSLHSGVPSRFSGSGSGTDYTLTISSLQPEDFATYYCQQYSALPWTFGQGTKVEIK | 10 | 28.6 |
| M4-3(C1)/ML2 (IgG) (antibody, V domains shown, Human IgG1 format) VH: QVQLQESGPGLVKPSQTLSLTCTVSGGSITSGYYWNWIRQHPGKGLEWIGYITFDGSNNYNPSLKSRVTISRDTSKNQFSLKLSSVTAADTAVYYCADFDYWGQGTLVTVSS VL: DIQMTQSPSSLSASVGDRVTITCRASQGIRNYLNWYQQKPGKAPKLLIYYTSSLHSGVPSRFSGSGSGTDFTLTISSLQPEDFATYYCQQYSKLPWTFGQGTKVEIK | 2.5 | 2.2 |
| M4-3/ML2 (C5) (IgG) (antibody, V domains shown, Human IgG1 format) VH: QVQLQESGPGLVKPSQTLSLTCTVSGGSITSGYYWNWIRQHPGKGLEWIGYITYDGSNNYNPSLKSRVTISRDTSKNQFSLKLSSVTAADTAVYYCADFDYWGQGTLVTVSS VL: DIQMTQSPSSLSASVGDRVTITCRASRGIREYLNWYQQKPGKAPKLLIYYTGSLHSGVPSRFSGSGSGTDFTLTISSLQPEDFATYYCQQYSELPWTFGQGTKVEIK | 2 | 5 |
| M4-3/ML2(G3) (IgG) (antibody, V domains shown, Human IgG1 format) VH: QVQLQESGPGLVKPSQTLSLTCTVSGGSITSGYYWNWIRQHPGKGLEWIGYITYDGSNNYNPSLKSRVTISRDTSKNQFSLKLSSVTAADTAVYYCADFDYWGQGTLVTVSS VL: DIQMTQSPSSLSASVGDRVTITCRASQGIRNYLNWYQQKPGKAPKLLIYYTSSLHSGVPSRFSGSGSGTDYTLTISSLQPEDFATYYCQQYSALPWTFGQGTKVEIK | 3.3 | 6.7 |
| M4-3(A7)/ML2 (IgG) (antibody, V domains shown, Human IgG1 format) VH: QVQLQESGPGLVKPSQTLSLTCTVSGGSITDGYYWNWIRQHPGKGLEWIGYITFDGRNNYNPSLKSRVTISRDTSKNQFSLKLSSVTAADTAVYYCADFDYWGQGTLVTVSS VL: DIQMTQSPSSLSASVGDRVTITCRASQGIRNYLNWYQQKPGKAPKLLIYYTSSLHSGVPSRFSGSGSGTDFTLTISSLQPEDFATYYCQQYSKLPWTFGQGTKVEIK | 2 | 2.5 |
| M4-3/ML2 (E10) (IgG) (antibody, V domains shown, Human IgG1 format) VH: QVQLQESGPGLVKPSQTLSLTCTVSGGSITSGYYWNWIRQHPGKGLEWIGYITYDGSNNYNPSLKSRVTISRDTSKNQFSLKLSSVTAADTAVYYCADFDYWGQGTLVTVSS VL: DIQMTQSPSSLSASVGDRVTITCRASYGIRGYLNWYQQKPGKAPKLLIYYTSSLHSGVPSRFSGSGSGTDFTLTISSLQPEDFATYHCQQYSKLPWTFGQGTKVEIK | 1 | 2 |
| M4-3(C1)/ML2(E10) (IgG) (antibody, V domains shown, Human IgG1 format) VH: QVQLQESGPGLVKPSQTLSLTCTVSGGSITSGYYWNWIRQHPGKGLEWIGYITFDGSNNYNPSLKSRVTISRDTSKNQFSLKLSSVTAADTAVYYCADFDYWGQGTLVTVSS VL: DIQMTQSPSSLSASVGDRVTITCRASYGIRGYLNWYQQKPGKAPKLLIYYTSSLHSGVPSRFSGSGSGTDFTLTISSLQPEDFATYHCQQYSKLPWTFGQGTKVEIK | 3.3 | 4 |
| M4-3/ML2 (C5/G3) (IgG) (antibody, V domains shown, Human IgG1 format) VH: QVQLQESGPGLVKPSQTLSLTCTVSGGSITSGYYWNWIRQHPGKGLEWIGYITYDGSNNYNPSLKSRVTISRDTSKNQFSLKLSSVTAADTAVYYCADFDYWGQGTLVTVSS VL: DIQMTQSPSSLSASVGDRVTITCRASRGIREYLNWYQQKPGKAPKLLIYYTGSLHSGVPSRFSGSGSGTDFTLTISSLQPEDFATYYCQQYSALPWTFGQGTKVEIK | 2 | 2.9 |
| M4-3(D6)/ML2 (IgG) (antibody, V domains shown, Human IgG1 format) VH: QVQLQESGPGLVKPSQTLSLTCTVSGGSITSGYYWNWIRQHPGKGLEWIGYITFDGKNNYNPSLKSRVTISRDTSKNQFSLKLSSVTAADTAVYYCADFDYWGQGTLVTVSS VL: DIQMTQSPSSLSASVGDRVTITCRASQGIRNYLNWYQQKPGKAPKLLIYYTSSLHSGVPSRFSGSGSGTDFTLTISSLQPEDFATYYCQQYSKLPWTFGQGTKVEIK | 2 | 5 |
| M4-3(A7)/ML2(E10) (IgG) (antibody, V domains shown, Human IgG1 format) VH: QVQLQESGPGLVKPSQTLSLTCTVSGGSITDGYYWNWIRQHPGKGLEWIGYITFDGRNNYNPSLKSRVTISRDTSKNQFSLKLSSVTAADTAVYYCADFDYWGQGTLVTVSS VL: DIQMTQSPSSLSASVGDRVTITCRASYGIRGYLNWYQQKPGKAPKLLIYYTSSLHSGVPSRFSGSGSGTDFTLTISSLQPEDFATYHCQQYSKLPWTFGQGTKVEIK | 2.9 | 6.7 |
| M4-3(C1)/ML2(C5) (IgG) (antibody, V domains shown, Human IgG1 format) VH: QVQLQESGPGLVKPSQTLSLTCTVSGGSITSGYYWNWIRQHPGKGLEWIGYITFDGSNNYNPSLKSRVTISRDTSKNQFSLKLSSVTAADTAVYYCADFDYWGQGTLVTVSS VL: DIQMTQSPSSLSASVGDRVTITCRASRGIREYLNWYQQKPGKAPKLLIYYTGSLHSGVPSRFSGSGSGTDFTLTISSLQPEDFATYYCQQYSELPWTFGQGTKVEIK | 6.7 | 10 |
| M4-3(B8)/ML2 (IgG) (antibody, V domains shown, Human IgG1 format) VH: QVQLQESGPGLVKPSQTLSLTCTVSGGSITSGYYWNWIRQHPGKGLEWIGYITFDGRNNYNPSLKSRVTISRDTSKNQFSLKLSSVTAADTAVYYCADFDYWGQGTLVTVSS VL: DIQMTQSPSSLSASVGDRVTITCRASQGIRNYLNWYQQKPGKAPKLLIYYTSSLHSGVPSRFSGSGSGTDFTLTISSLQPEDFATYYCQQYSKLPWTFGQGTKVEIK | 2 | 2.2 |

From patent US20180086849A1 (Hoffmann-La Roche, published 2018)
